Assay results published in patent US20240101668A1 (WUGEN, published 2024).
Changes are numbered by the printed parent chain.

Key:
huCLL1-Q244-Avi-Tev-His = target: T1, huCLL1-Q244-Avi-Tev-His (human, UniProt Q5QGZ9 65-265); assay: BLI
T1 construct: extracellular domain; also called CLL-1 K244Q
T1 sequence (looked up): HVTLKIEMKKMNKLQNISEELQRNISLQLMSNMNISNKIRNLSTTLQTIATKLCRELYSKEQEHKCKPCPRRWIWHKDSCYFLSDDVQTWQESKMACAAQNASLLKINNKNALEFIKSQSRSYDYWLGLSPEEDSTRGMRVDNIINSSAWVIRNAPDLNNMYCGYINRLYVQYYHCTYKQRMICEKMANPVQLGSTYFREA

huCLL1-K244-Avi-Tev-His = target: T2, huCLL1-K244-Avi-Tev-His (human, UniProt Q5QGZ9 65-265); assay: BLI
T2 construct: extracellular domain
T2 sequence (looked up): T1 sequence (looked up) with Q180K
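Also: Bio-layer interferometry with scFvs captured on biosensors via anti-V5 antibody, exposed 2 min to CLL-1 K244 or Q244 protein, 5 min dissociation, scored as binding, no binding or ambiguous.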

B1: Polypeptide No. 51 (scFv, V domains shown)
VH: QVQLVQSGAEVKKPGSSVKVSCKASGGTFSSYAISWVRQAPGQGLEWMGEIIPFFGTANYAQKFQGRVTITADESTSTAYMELSSLRSEDTAVYYCARAEYGGDLDYWGQGTLVTVSS
VL: DIQMTQSPSSLSASVGDRVTITCQASQDISNLLNWYQQKPGKAPKLLIYAASTLQSGVPSRFSGSGSGTDFTLTISSLQPEDFATYYCQQSYNTPWTFGPGTKVDIKR
notes: scFv
**Q.** Does B1 bind (huCLL1-Q244-Avi-Tev-His)?
**A.** no binding

**Q.** Does B1 bind (huCLL1-K244-Avi-Tev-His)?
**A.** binds

B2: Polypeptide No. 55 (scFv, V domains shown)
VH: QVQLVQSGAEVKKPGASVKVSCKASGYTFTGYHMHWVRQAPGQGLEWMGWINPNTGGTNYAQKFQGRVTMTRDTSTSTVYMELSSLRSEDTAVYYCARPNTAMVPPYYYYYGMDVWGQGTLVTVSS
VL: B1 VL with L32Y, T53S, S91Y, Y92N, N93S, T94Y, W96L, P100Q, V104L, D105E
notes: scFv
**Q.** Does B2 bind (huCLL1-Q244-Avi-Tev-His)?
**A.** no binding

**Q.** Does B2 bind (huCLL1-K244-Avi-Tev-His)?
**A.** binds

B3: Polypeptide No. 65 (scFv, V domains shown)
VH: QVQLVQSGAEVKKPGASVKVSCKASGYTFTGYYMHWVRQAPGQGLEWMGWINPNSGGTNYAQKFQGRVTMTRDTSTSTVYMELSSLRSEDTAVYYCAREIGGYDNYYYYGMDVWGQGTTVTVSS
VL: B1 VL with Q24R, D28S, S30G, N31T, L32Y, T53S, N93T, T94D, P100Q, D105E
notes: scFv
**Q.** What does the source list for B3?
**A.** binding result (huCLL1-Q244-Avi-Tev-His): no binding; binding result (huCLL1-K244-Avi-Tev-His): binds

B4: Polypeptide No. 60 (scFv, V domains shown)
VH: QVQLVQSGAEVKKPGSSVKVSCKASGGTFSSYAISWVRQAPGQGLEWMGGIIPMFGTANYAQKFQGRVTITADESTSTAYMELSSLRSEDTAVYYCARDLGYSNAGGTLHYWGQGTLVTVSS
VL: EIVMTQSPATLSVSPGERATLSCRASQSIGTYLAWYQQKPGQAPRLLIYDASSRATGIPARFSGSGSGTEFTLTISSLQSEDFAVYYCQQYKSYPLTFGGGTKVEIKR
notes: scFv
**Q.** Does B4 bind (huCLL1-Q244-Avi-Tev-His)?
**A.** no binding

**Q.** Does B4 bind (huCLL1-K244-Avi-Tev-His)?
**A.** binds

B5: Polypeptide No. 64 (scFv, V domains shown)
VH: QVQLVQSGAEVKKPGASVKVSCKASGYTFTDYYMHWVRQAPGQGLEWMGLIDPSGGSTNSLQKFQGRVTMTRDTSTSTVYMELSSLRSEDTAVYYCARDVGFGELSFDIWGQGTTVTVSS
VL: DIVMTQSPLSLPVTPGEPASISCRSSQSLLHSNGYNYLDWYLQKPGQSPQLLIYAASTLQSGVPDRFSGSGSGTDFTLKISRVEAEDVGVYYCMQGTHWPPTFGPGTKVDIKR
notes: scFv
**Q.** What does the source list for B5?
**A.** binding result (huCLL1-Q244-Avi-Tev-His): no binding; binding result (huCLL1-K244-Avi-Tev-His): binds

B6: Polypeptide No. 66 (scFv, V domains shown)
VH: QVQLVQSGAEVKKPGASVKVSCKASGYTFNTYYMHWVRQAPGQGLEWMGWMHPNTGNTGYAQKFQGRVTMTRDTSTSTVYMELSSLRSEDTAVYYCARGTTSDAFDIWGQGTMVTVSS
VL: DIQMTQSPSSLSASVGDRVTITCRASQSIFSYLNWYQQKPGKAPKLLIYSASNLQSGVPSRFSGSGSGTDFTLTISSLQPEDFATYYCQQSYSTPITFGQGTKVEIKR
notes: scFv
**Q.** Does B6 bind (huCLL1-Q244-Avi-Tev-His)?
**A.** no binding

**Q.** Does B6 bind (huCLL1-K244-Avi-Tev-His)?
**A.** binds

B7: Polypeptide No. 56 (scFv, V domains shown)
VH: QVQLVQSGAEVKKPGASVKVSCKASGYTFTSYDINWVRQAPGQGLEWMGWMNPNSGNTGYAQKFQGRVTMTRDTSTSTVYMELSSLRSEDTAVYYCARVSATGTYGLDYWGQGTLVTVSS
VL: DIQMTQSPSSLSASVGDRVTITCRASHSISSWLAWYQQKPGKAPKLLIYDASNLETGVPSRFSGSGSGTDFTLTISSLQPEDFATYYCQQADSFPLTFGGGTKVEIKR
notes: scFv
**Q.** Does B7 bind (huCLL1-Q244-Avi-Tev-His)?
**A.** no binding

**Q.** Does B7 bind (huCLL1-K244-Avi-Tev-His)?
**A.** binds

B8: Polypeptide No. 58 (scFv, V domains shown)
VH: QVQLVQSGAEVKKPGASVKVSCKASGYTFTDYYLHWVRQAPGQGLEWMGWMNPNSGNTGYAQKFQGRVTMTRDTSTSTVYMELSSLRSEDTAVYYCAADVITAYGMDVWGQGTMVTVSS
VL: B7 VL with H27Q, S28G, S31N, W32Y, A91S, D92Y, S93N, F94V, L96P, G100Q
notes: scFv
**Q.** What does the source list for B8?
**A.** binding result (huCLL1-Q244-Avi-Tev-His): no binding; binding result (huCLL1-K244-Avi-Tev-His): binds

B9: Polypeptide No. 54 (scFv, V domains shown)
VH: QVQLVQSGAEVKKPGASVKVSCKASGGTFSSYAISWVRQAPGQGLEWMGWIDPKNGDTNYAQKFQGRVTMTRDTSTSTVYMELSSLRSEDTAVYYCATEGSHHPYYYYGMDVWGQGTTVTVSS
VL: DIQMTQSPSSLSASVGDRVTITCRASQGIGNWLAWYQQKPGKAPKLLIYEASTLQSGVPSRFSGSGSGTDFTLTISSLQPEDFATYYCHQYNAYPWTFGQGTKVEIKR
notes: scFv
**Q.** Does B9 bind (huCLL1-Q244-Avi-Tev-His)?
**A.** no binding

**Q.** Does B9 bind (huCLL1-K244-Avi-Tev-His)?
**A.** binds

B10: Polypeptide No. 52 (scFv, V domains shown)
VH: QVQLVQSGAEVKKPGASVKVSCKASGDTFTRHYVHWVRQAPGQGLEWMGIINPRGGTHYAQKFQGRVTMTRDTSTSTVYMELSSLRSEDTAVYYCARRDCSGGSCYSDLDYWGQGTLVTVSS
VL: DIQMTQSPSSLSASVGDRVTITCQASQDIHNYLNWYQQKPGKAPKLLIYQASSLESGVPSRFSGSGSGTDFTLTISSLQPEDFATYYCQQANSFPLTFGGGTKLEIKR
notes: scFv
**Q.** Does B10 bind (huCLL1-Q244-Avi-Tev-His)?
**A.** no binding

**Q.** Does B10 bind (huCLL1-K244-Avi-Tev-His)?
**A.** binds

B11: Polypeptide No. 63 (scFv, V domains shown)
VH: QVQLVQSGAEVKKPGASVKVSCKASGYTFTGYYVHWVRQAPGQGLEWMGVINPSGGGSPSYAQKFQGRVTMTRDTSTSTVYMELSSLRSEDTAVYYCARDRSDVDYGMDVWGQGTTVTVSS
VL: B10 VL with H30S, Q50D, S53N, E55Q, Q89L, A91H, F94Y, L104V
notes: scFv
**Q.** Does B11 bind (huCLL1-Q244-Avi-Tev-His)?
**A.** no binding

**Q.** Does B11 bind (huCLL1-K244-Avi-Tev-His)?
**A.** binds

B12: Polypeptide No. 62 (scFv, V domains shown)
VH: QVQLVQSGAEVKKPGASVKVSCKASGYTFTDHFVHWVRQAPGQGLEWMGWISAYNGNTNYAQKFQGRVTMTRDTSTSTVYMELSSLRSEDTAVYYCARAEYSYGFDYWGQGTLVTVSS
VL: B10 VL with Q24R, D28G, N34A, Q50D, S53N, S56T, A91T, N92S, L96Y, G100Q
notes: scFv
**Q.** Does B12 bind (huCLL1-Q244-Avi-Tev-His)?
**A.** no binding

**Q.** Does B12 bind (huCLL1-K244-Avi-Tev-His)?
**A.** binds

B13: Polypeptide No. 53 (scFv, V domains shown)
VH: QVQLVQSGAEVKKPGASVKVSCKASGGTFSSYAISWVRQAPGQGLEWMGWINPDSGDASYARKFQGRVTMTRDTSTSTVYMELSSLRSEDTAVYYCATFGEEAFDIWGQGTMVTVSS
VL: B10 VL with Q24R, D28N, H30G, N31S, Y32W, N34A, Q50G, S53I, E55Q
notes: scFv
**Q.** Does B13 bind (huCLL1-Q244-Avi-Tev-His)?
**A.** no binding

**Q.** Does B13 bind (huCLL1-K244-Avi-Tev-His)?
**A.** binds

B14: Polypeptide No. 59 (scFv, V domains shown)
VH: EVQLLESGGGLVQPGGSLRLSCAASGFTFSNAWMSWVRQAPGKGLEWVADISYDGTNDYYADSVKGRFTISRDNSKNTLYLQMNSLRAEDTAVYYCTTEELRFGGFDYWGQGTLVTVSS
VL: B7 VL with H27Q, W32Y, A34N, D92N, G100Q
notes: scFv
**Q.** Does B14 bind (huCLL1-Q244-Avi-Tev-His)?
**A.** no binding

**Q.** Does B14 bind (huCLL1-K244-Avi-Tev-His)?
**A.** binds

B15: Polypeptide No. 57 (scFv, V domains shown)
VH: QVQLVQSGAEVKKPGASVKVSCKASGYTFNNYGITWVRQAPGQGLEWMGIINPITGVTTYAQNFQGRVTMTRDTSTSTVYMELSSLRSEDTAVYYCASGEQQLVLFDYWGQGTLVTVSS
VL: B10 VL with H30N, N31D, Q50G, S53N, E55Q, Q89L, A91H, F94Y, G100Q
notes: scFv
**Q.** Does B15 bind (huCLL1-Q244-Avi-Tev-His)?
**A.** no binding

**Q.** Does B15 bind (huCLL1-K244-Avi-Tev-His)?
**A.** binds
